According to patent publication US20150344570A1 (published 2015):
Where a chain is given by its changes, count along the chain named. Names may count otherwise.

B1: H240-Kn120/H240-Hl068/L73-k0 (antibody, human IgG1, kappa)
heavy 1: QDQLVQSGAEVKKPGASVKVSCKASGFNIKDTYIQWVRQAPGQGLEWMGRIDPLRKQTKYREKFEGRVTITADTSTNTAYMELSSLRSEDTAVYYCVRSGREFDYWGQGTLVTVSSASTKGPSVFPLAPSSKSTSGGTAALGCLVKDYFPEPVTVSWNSGALTSGVHTFPAVLQSSGLYSLSSVVTVPSSSLGTQTYICNVNHKPSNTKVDKKVEPKSCDKTHTCPPCPAPEYYWGPMVFLFPPKPKDTLMISRTPEVTCVVVDVSDEDPEVKFNWYVDGVEVHNAKTKPREEQYNATYRVVSVLTVLHQDWLNGKEYKCKVSNKDLPAPIEKTISKAKGQPREPQVCTLPPSRDELTKNQVSLWCLVKGFYPSDIAVEWESNGQPENNYKTTPPVLDSDGSFFLYSKLTVDKSRWQQGNVFSCSVMHEALHNHYTQKSLSLSP
heavy 2: QDQLVQSGAEVKKPGASVKVSCKASGFNIKDTYIQWVRQAPGQGLEWMGRIDPLRKQTKYREKFEGRVTITADTSTNTAYMELSSLRSEDTAVYYCVRSGREFDYWGQGTLVTVSSASTKGPSVFPLAPSSKSTSGGTAALGCLVKDYFPEPVTVSWNSGALTSGVHTFPAVLQSSGLYSLSSVVTVPSSSLGTQTYICNVNHKPSNTKVDKKVEPKSCDKTHTCPPCPAPELLGGPSVFLFPPKPKDTLMISRTPEVTCVVVDVSHEEPEVKFNWYVDGVEVHNAKTKPREEQYNSTYRVVSVLTVLHQDWLNGKEYKCKVSNDALPKPIEETISKAKGQPREPQVYTLPPSRCELTKNQVSLSCAVKGFYPSDIAVEWESNGQPENNYKTTPPVLDSDGSFFLVSKLTVDKSRWQQGNVFSCSVMHEALHNHYTQKSLSLSP
light: DIQMTQSPSSLSASVGDRVTITCRASQDIHKYIAWYQQKPGQAPRLLIQYTSTLQPGVPSRFSGSGSGTDYTFTISSLQPEDIATYYCLQYEQLRTFGGGTKVEIKRTVAAPSVFIFPPSDEQLKSGTASVVCLLNNFYPREAKVQWKVDNALQSGNSQESVTEQDSKDSTYSLSSTLTLSKADYEKHKVYACEVTHQGLSSPVTKSFNRGEC
notes: Heterodimerized (knobs-into-holes) anti-epiregulin IgG1 antibody
B2: H240-Kn120/H240-Hl170/L73-k0 (antibody, human IgG1, kappa)
heavy 1: B1 heavy 1
heavy 2: B1 heavy 2 with L327A
light: B1 light
notes: Heterodimerized anti-epiregulin IgG1 antibody; L328A in H240-Hl068
B3: H240-Kn120/H240-Hl150/L73-k0 (antibody, human IgG1, kappa)
heavy 1: B1 heavy 1
heavy 2: B1 heavy 2 with I331T
light: B1 light
notes: Heterodimerized anti-epiregulin IgG1 antibody; I332T in H240-Hl068
B4: H240-Kn120/H240-Hl174/L73-k0 (antibody, human IgG1, kappa)
heavy 1: B1 heavy 1
heavy 2: B1 heavy 2 with I331E
light: B1 light
notes: Heterodimerized anti-epiregulin IgG1 antibody; I332E in H240-Hl068
B5: H240-Kn138/H240-Hl068/L73-k0 (antibody, human IgG1, kappa)
heavy 1: B1 heavy 1 with L327W
heavy 2: B1 heavy 2
light: B1 light
notes: Heterodimerized anti-epiregulin IgG1 antibody; L328W in H240-Kn120
B6: H240-Kn120/H240-Hl182/L73-k0 (antibody, human IgG1, kappa)
heavy 1: B1 heavy 1
heavy 2: B1 heavy 2 with A230H
light: B1 light
notes: Heterodimerized anti-epiregulin IgG1 antibody; A231H in H240-Hl068
B7: GpH7-A48/GpH7-B3-15-02A/GpL16-k0 (antibody, human IgG1, kappa)
heavy 1: QVQLVQSGAEVKKPGASVTVSCKASGYTFTDYEMHWIRQPPGEGLEWIGAIDPKTGDTAYSESFQDRVTLTADKSTSTAYMELSSLTSEDTAVYYCTRFYSYTYWGQGTLVTVSSASTKGPSVFPLAPSSKSTSGGTAALGCLVKDYFPEPVTVSWNSGALTSGVHTFPAVLQSSGLYSLSSVVTVPSSSLGTQTYICNVNHKPSNTKVDKKVEPKSCDKTHTCPPCPAPELLGGPSVFLFPPKPKDTLMISRTPEVTCVVVDVSHEDPEVKFNWYVDGVEVHNAKTKPREEQYNSTYRVVSVLTVLHQDWLNGKEYKCKVSNKALRAPIEKTISKAKGQPREPQVYTLPPSRKELTKNQVSLTCLVKGFYPSDIAVEWESNGQPENNYKTTPPVLDSDGSFFLYSKLTVDKSRWQQGNVFSCSVMHEALHNRYTQKSLSLSP
heavy 2: not shown
light: DIVMTQSPLSLPVTPGEPASISCQASESLVHSNRNTYLHWYLQKPGQSPQLLIYKVSNRFSGVPDRFSGSGSGTDFTLKISRVEAEDVGVYYCSQNTHVPPTFGQGTKVEIERTVAAPSVFIFPPSDEQLKSGTASVVCLLNNFYPREAKVQWKVDNALQSGNSQESVTEQDSKDSTYSLSSTLTLSKADYEKHKVYACEVTHQGLSSPVTKSFNRGEC
notes: Anti-glypican-3 IgG1 heterodimer; P329R in H1, S298A in H2
B8: GpH7-TA7/GpH7-B78/GpL16-k0 (antibody, human IgG1, kappa)
heavy 1: B7 heavy 1 with L232Y, G234W, S296A, R327P
heavy 2: B7 heavy 1 with S237D, R327P, A328L, I330E, K354D, R433H, K437E
light: B7 light
notes: L234Y/G236W/S298A in one H chain, S239D/A330L/I332E in the other
B9: GpH7-A53/GpH7-B78/GpL16-k0 (antibody, human IgG1, kappa)
heavy 1: B7 heavy 1 with S237D, R327P
heavy 2: B7 heavy 1 with S237D, R327P, A328L, I330E, K354D, R433H, K437E
light: B7 light
notes: S239D in one H chain, S239D/A330L/I332E in the other
B10: GpH7-A48/GpH7-B3-22-10E/GpL16-k0 (antibody, human IgG1, kappa)
heavy 1: B7 heavy 1
heavy 2: not shown
light: B7 light
notes: Anti-glypican-3 IgG1 heterodimer; P329R in H1, I332E in H2
B11: GpH7-A48/GpH7-B3-20-08L/GpL16-k0 (antibody, human IgG1, kappa)
heavy 1: B7 heavy 1
heavy 2: not shown
light: B7 light
notes: Anti-glypican-3 IgG1 heterodimer; P329R in H1, A330L in H2

Tests used:
FcgRIa = biological target: T1, FcgRIa (human, UniProt P12314 16-292); experiment: SPR (Biacore); KD of H240-Kn120/H240-Hl068/L73-k0 divided by KD of the sample
T1 construct: extracellular domain; Soluble extracellular domain expressed in FreeStyle293 cells; also called FcγRIa; FcγRI; not shown: His tag attached to the C terminus
Experimental: (§1) Analysis of interaction between objective antibody and the FcγR was carried out using Biacore T100 (GE Healthcare), Biacore T200, Biacore A100, and Biacore 4000. HBS-EP+ (GE Healthcare) was used as the running buffer, and the measurement temperature was set to 25° C. Chips produced by immobilizing the antigen peptide by the amine coupling method to a Series S sensor Chip CM5 (GE Healthcare), chips produced by allowing preliminarily biotinylated antigen peptides to interact with and immobilize onto a Series S Sensor Chip SA (certified) (GE Healthcare), chips produced by immobilizing Protein L (ACTIGEN, BioVision) to Series S Sencor Chip CM5 (GE Healthcare), or chips produced by immobilizing Protein A/G (Thermo Scientific) to Series S Sencor Chip CM5 (GE Healthcare) were used. Antibodies of interest were captured onto these chips, and allowed to interact to each FcγR diluted with running buffer. To regenerate and repeatedly use the chip, the antibodies captured onto the chip were washed off by reacting 10 mM glycine-HCl, pH 1.5.

FcgRIIaR = biological target: T2, FcgRIIaR (human, UniProt P12318 34-217); experiment: as above
T2 construct: extracellular domain; Allotype R131; also called FcγRIIa R; FcgRIIa type R; not shown: His tag attached to the C terminus
T2 sequence (looked up): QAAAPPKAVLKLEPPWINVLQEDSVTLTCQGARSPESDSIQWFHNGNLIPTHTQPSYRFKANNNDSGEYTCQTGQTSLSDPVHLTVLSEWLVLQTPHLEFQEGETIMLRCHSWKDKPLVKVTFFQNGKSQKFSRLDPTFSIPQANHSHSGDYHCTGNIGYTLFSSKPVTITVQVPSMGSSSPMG
Experimental: as §1

FcgRIIIaV = biological target: T3, FcgRIIIaV (human, UniProt P08637 17-208); experiment: as above
T3 construct: extracellular domain; Allotype V158; also called FcγRIIIa V; not shown: His tag attached to the C terminus
Experimental: as §1

FcgRIIb = biological target: T4, FcgRIIb (human, UniProt P31994 43-217); experiment: as above
T4 construct: extracellular domain; also called FcγRIIb; CD32B; not shown: His tag attached to the C terminus
T4 sequence (looked up): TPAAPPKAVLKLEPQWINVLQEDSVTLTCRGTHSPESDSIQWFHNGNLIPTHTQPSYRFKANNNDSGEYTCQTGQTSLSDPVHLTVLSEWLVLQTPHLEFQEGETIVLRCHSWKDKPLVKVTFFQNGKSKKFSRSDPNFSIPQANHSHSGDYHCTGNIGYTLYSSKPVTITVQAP
Experimental: as §1

FcgRIIaH = biological target: T5, FcgRIIaH (human, UniProt P12318 34-217); experiment: as above
T5 construct: extracellular domain; Allotype H131; also called FcγRIIa H; FcgRIIa type H; not shown: His tag attached to the C terminus
T5 sequence (looked up): T2 sequence (looked up) with R134H
Experimental: as §1

FcgRIIIaF = biological target: T6, FcgRIIIaF (human, UniProt P08637 17-208); experiment: as above
T6 construct: extracellular domain; Allotype F158; also called FcγRIIIa F; not shown: His tag attached to the C terminus
Experimental: as §1

FcγRIIIa = biological target: T7, FcγRIIIa (human, UniProt P08637 17-208); experiment: SPR (Biacore), antibody captured on antigen-peptide chip, FcγR as analyte; relative binding amount
T7 construct: extracellular domain; also called FcgRIIIa; CD16A; not shown: His tag attached to the C terminus
Excerpt: The expression vectors for the respective H chains were combined in a way that each of the alterations L234Y, G236W, S298A, S239D, A330L, and I332E is present in the same H chain as P329R or in the different H chain from P329R, and the expression vector GpL16-k0 for the L chain was combined with them. Antibodies of interest were expressed and prepared according to the method described in Reference Example 1. The prepared antibodies were used to assay the FcγRIIIa-binding activity. The result of assessment using P329R on the direction of FcγRIIIa recognition by L234Y, G236W, S298A, S239D, A330L, and I332E is summarized in Table 12.
Analysis of interaction between objective antibody and the FcγR was carried out using Biacore T100 (GE Healthcare). HBS-EP+ (GE Healthcare) was used as the running buffer, and the measurement temperature was set to 25° C. Chips produced by immobilizing the antigen peptide by the amine coupling method to a Series S Sencor Chip CM5 (GE Healthcare), or alternatively, chips produced by allowing preliminarily biotinylated antigen peptides to interact with and immobilize onto a Series S Sensor Chip SA (certified) (GE Healthcare) were used. Antibodies of interest were captured onto an antigen peptide-immobilized chip, and allowed to interact to each FcγR diluted with running buffer. To regenerate and repeatedly use the chip, the antibodies captured on the chip were washed off by reacting 10 mM glycine-HCl, pH 1.5.

FcγRIIIa F = FcγRIIIa F (human, UniProt P08637 17-208); experiment: SPR (Biacore), KD
Chain of FcγRIIIa F (P08637 17-208): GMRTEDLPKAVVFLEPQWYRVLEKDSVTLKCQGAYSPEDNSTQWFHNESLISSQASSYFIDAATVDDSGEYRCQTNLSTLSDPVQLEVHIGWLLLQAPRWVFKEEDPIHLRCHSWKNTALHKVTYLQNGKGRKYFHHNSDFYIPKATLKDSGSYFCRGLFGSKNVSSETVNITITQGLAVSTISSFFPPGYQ

T1 sequence (P12314 16-292): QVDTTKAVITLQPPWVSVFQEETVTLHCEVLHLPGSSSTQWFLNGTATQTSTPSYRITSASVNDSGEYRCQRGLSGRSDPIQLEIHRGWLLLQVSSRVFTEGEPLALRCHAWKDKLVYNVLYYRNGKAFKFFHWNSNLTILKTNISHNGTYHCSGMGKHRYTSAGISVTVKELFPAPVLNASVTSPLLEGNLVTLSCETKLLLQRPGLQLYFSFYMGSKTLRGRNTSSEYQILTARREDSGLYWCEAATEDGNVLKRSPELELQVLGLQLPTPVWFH
T3 sequence (P08637 17-208 F176V limits assumed): as the sequence (P08637 17-208) above, with F160V counted along it
T7 sequence (P08637 17-208): as the sequence (P08637 17-208) above
T6 sequence (P08637 17-208): as above

Row | Binder | relative KD (FcgRIa) | relative KD (FcgRIIaR) | relative KD (FcgRIIIaV) | relative KD (FcgRIIb) | relative KD (FcgRIIaH) | relative KD (FcgRIIIaF) | FcγRIIIa BINDING ACTIVITY (relative) (FcγRIIIa) | fold FcγRIIIa binding against GpH7-A5/GpH7-B78/GpL16-k0 (FcγRIIIa F) | fold decrease of FcγRIIIa-binding activity against GpH7-A57/GpH7-B78/GpL16-k0 (FcγRIIIa F)
1 | B1 | 1 | 1 | 1 | 1 | 1 | 1 |  |  | 
2 | B2 | 0.8 | 2.3 | 0.4 | 2.2 | 2.3 | 0.6 |  |  | 
3 | B3 | 0.4 | 1 | 0.6 | 1.5 | 1.2 | 0.7 |  |  | 
4 | B4 | 1.1 | 0.7 | 10 | 1.2 | 0.7 | 4.3 |  |  | 
5 | B5 | 1 | 1.1 | 0.8 | 1.2 | 1.6 | 0.6 |  |  | 
6 | B6 | 0.9 | 0.5 | 1.2 | 0.6 | 0.5 | 0.7 |  |  | 
7 | B7 |  |  |  |  |  |  | 47 relative, GpH7-A5/GpH7-B3/GpL16-k0 = 100 |  | 
8 | B8 |  |  |  |  |  |  |  | ≥ 10 times | 
9 | B9 |  |  |  |  |  |  |  |  | 1.8 times
10 | B10 |  |  |  |  |  |  | 189 relative, GpH7-A5/GpH7-B3/GpL16-k0 = 100 |  | 
11 | B11 |  |  |  |  |  |  | 60 relative, GpH7-A5/GpH7-B3/GpL16-k0 = 100 |  | 
